Laboratory results taken from US20200308270A1 (Zymeworks, published 2020).
Residue numbers refer to the chain shown, from its start. Names may count otherwise.

B1: CAT-2200 designed Vlambda-Ckappa chimeric Fab, design 18 (E83F_D85T_T105E) (Fab, V domains shown)
VH: not shown
VL: NFMLTQPHSVSESPGKTVTISCTRSSGSLANYYVQWYQQRPGSSPTIVIFANNQRPSGVPDRFSGSIDSSSNSASLTISGLKTEDFATYYCQTYDPYSVVFGGGTKLEVLR
B2: CAT-2200 designed Vlambda-Ckappa chimeric Fab, design 32 (E83I_D85T) (Fab, V domains shown)
VH: not shown
VL: B1 VL with F86I, E108T
B3: CAT-2200 designed Vlambda-Ckappa chimeric Fab, design 21 (E83F_D85V_T105E_V106I) (Fab, V domains shown)
VH: not shown
VL: B1 VL with T88V, V109I
B4: CAT-2200 designed Vlambda-Ckappa chimeric Fab, design 17 (E83F_D85T) (Fab, V domains shown)
VH: not shown
VL: B1 VL with E108T
B5: CAT-2200 designed Vlambda-Ckappa chimeric Fab, design 34 (E83I_D85T_T105E_V106I) (Fab, V domains shown)
VH: not shown
VL: B1 VL with F86I, V109I
B6: CAT-2200 designed Vlambda-Ckappa chimeric Fab, design 31 (E83I_T105E) (Fab, V domains shown)
VH: not shown
VL: B1 VL with F86I, T88D
B7: CAT-2200 designed Vlambda-Ckappa chimeric Fab, design 14 (E83F) (Fab, V domains shown)
VH: not shown
VL: B1 VL with T88D, E108T
B8: CAT-2200 designed Vlambda-Ckappa chimeric Fab, design 25 (E83V_V106I) (Fab, V domains shown)
VH: not shown
VL: B1 VL with F86V, T88D, E108T, V109I
B9: CAT-2200 designed Vlambda-Ckappa chimeric Fab, design 20 (E83F_D85T_T105E_V106I) (Fab, V domains shown)
VH: not shown
VL: B1 VL with V109I
B10: CAT-2200 designed Vlambda-Ckappa chimeric Fab, design 35 (E83A) (Fab, V domains shown)
VH: not shown
VL: B1 VL with F86A, T88D, E108T
B11: CAT-2200 designed Vlambda-Ckappa chimeric Fab, design 15 (E83F_T105E) (Fab, V domains shown)
VH: not shown
VL: B1 VL with T88D
B12: CAT-2200 designed Vlambda-Ckappa chimeric Fab, design 30 (E83I) (Fab, V domains shown)
VH: not shown
VL: B1 VL with F86I, T88D, E108T
B13: CAT-2200 designed Vlambda-Ckappa chimeric Fab, design 39 (E83A_D85T_T105E_V106I) (Fab, V domains shown)
VH: not shown
VL: B1 VL with F86A, V109I
B14: CAT-2200 designed Vlambda-Ckappa chimeric Fab, design 27 (E83V_D85T_T105E) (Fab, V domains shown)
VH: not shown
VL: B1 VL with F86V
B15: CAT-2200 designed Vlambda-Ckappa chimeric Fab, design 33 (E83I_D85T_T105E) (Fab, V domains shown)
VH: not shown
VL: B1 VL with F86I
B16: CAT-2200 designed Vlambda-Ckappa chimeric Fab, design 38 (E83A_D85T_T105E) (Fab, V domains shown)
VH: not shown
VL: B1 VL with F86A
B17: CAT-2200 designed Vlambda-Ckappa chimeric Fab, design 19 (E83F_D85V_T105E) (Fab, V domains shown)
VH: not shown
VL: B1 VL with T88V
B18: CAT-2200 designed Vlambda-Ckappa chimeric Fab, design 36 (E83A_T105E) (Fab, V domains shown)
VH: not shown
VL: B1 VL with F86A, T88D
B19: CAT-2200 designed Vlambda-Ckappa chimeric Fab, design 23 (E83V) (Fab, V domains shown)
VH: not shown
VL: B1 VL with F86V, T88D, E108T
B20: CAT-2200 designed Vlambda-Ckappa chimeric Fab, design 28 (E83V_D85V_T105E) (Fab, V domains shown)
VH: not shown
VL: B1 VL with F86V, T88V
B21: CAT-2200 designed Vlambda-Ckappa chimeric Fab, design 37 (E83A_D85T) (Fab, V domains shown)
VH: not shown
VL: B1 VL with F86A, E108T
B22: CAT-2200 designed Vlambda-Ckappa chimeric Fab, design 26 (E83V_D85T) (Fab, V domains shown)
VH: not shown
VL: B1 VL with F86V, E108T
B23: CAT-2200 designed Vlambda-Ckappa chimeric Fab, design 16 (E83F_V106I) (Fab, V domains shown)
VH: not shown
VL: B1 VL with T88D, E108T, V109I
B24: CAT-2200 designed Vlambda-Ckappa chimeric Fab, design 29 (E83V_D85T_T105E_V106I) (Fab, V domains shown)
VH: not shown
VL: B1 VL with F86V, V109I
B25: CAT-2200 designed Vlambda-Ckappa chimeric Fab, design 24 (E83V_T105E) (Fab, V domains shown)
VH: not shown
VL: B1 VL with F86V, T88D
B26: H3 designed Vlambda-Ckappa chimeric Fab, design 18 (E83F_D85T_T105E) (Fab, name in Kabat numbering, V domains shown)
VH: QVQLQESGGGLVKPGGSLRLSCAASGFTFSSYWMSWVRQAPGKGLEWVANINRDGSASYYVDSVKGRFTISRDDAKNSLYLQMNSLRAEDTAVYYCARDRGVGYFDLWGRGTLVTVSS
VL: QSALTQPASVSGSPGQSITISCTGTSSDVGGYNFVSWYQQHPGKAPKLMIYDVSDRPSGVSDRFSGSKSGNTASLIISGLQADDFATYYCSSYGSSSTHVIFGGGTKVEVLR
B27: H3 wild-type lambda Fab (Fab, V domains shown)
VH: B26 VH
VL: B26 VL with F85E, T87D, E109T, R112G
notes: Truncated heavy chain (VH-CH1-upper IgG1 hinge) and 'wild-type' lambda light chain (H3 VL + IGLC2); also called WT; H3 Fab
B28: H3 designed Vlambda-Ckappa chimeric Fab, design 14 (E83F) (Fab, name in Kabat numbering, V domains shown)
VH: B26 VH
VL: B26 VL with T87D, E109T
B29: H3 designed Vlambda-Ckappa chimeric Fab, design 23 (E83V) (Fab, name in Kabat numbering, V domains shown)
VH: B26 VH
VL: B26 VL with F85V, T87D, E109T
B30: H3 Vlambda-Ckappa chimeric Fab (Fab, V domains shown)
VH: B26 VH
VL: B26 VL with F85E, T87D, E109T
notes: Parent chimeric Fab without stabilizing substitutions; also called chimera; VL-CK chimeric Fab
B31: H3 designed Vlambda-Ckappa chimeric Fab, design 24 (E83V_T105E) (Fab, name in Kabat numbering, V domains shown)
VH: B26 VH
VL: B26 VL with F85V, T87D
B32: H3 designed Vlambda-Ckappa chimeric Fab, design 15 (E83F_T105E) (Fab, name in Kabat numbering, V domains shown)
VH: B26 VH
VL: B26 VL with T87D
B33: H3 designed Vlambda-Ckappa chimeric Fab, design 33 (E83I_D85T_T105E) (Fab, name in Kabat numbering, V domains shown)
VH: B26 VH
VL: B26 VL with F85I
B34: H3 designed Vlambda-Ckappa chimeric Fab, design 16 (E83F_V106I) (Fab, name in Kabat numbering, V domains shown)
VH: B26 VH
VL: B26 VL with T87D, E109T, V110I
B35: H3 designed Vlambda-Ckappa chimeric Fab, design 30 (E83I) (Fab, name in Kabat numbering, V domains shown)
VH: B26 VH
VL: B26 VL with F85I, T87D, E109T
B36: H3 designed Vlambda-Ckappa chimeric Fab, design 38 (E83A_D85T_T105E) (Fab, name in Kabat numbering, V domains shown)
VH: B26 VH
VL: B26 VL with F85A
B37: H3 designed Vlambda-Ckappa chimeric Fab, design 34 (E83I_D85T_T105E_V106I) (Fab, name in Kabat numbering, V domains shown)
VH: B26 VH
VL: B26 VL with F85I, V110I
B38: H3 designed Vlambda-Ckappa chimeric Fab, design 29 (E83V_D85T_T105E_V106I) (Fab, name in Kabat numbering, V domains shown)
VH: B26 VH
VL: B26 VL with F85V, V110I
B39: H3 designed Vlambda-Ckappa chimeric Fab, design 35 (E83A) (Fab, name in Kabat numbering, V domains shown)
VH: B26 VH
VL: B26 VL with F85A, T87D, E109T
B40: H3 designed Vlambda-Ckappa chimeric Fab, design 22 (E83F_D85T_T105E_V106I_L106AK) (Fab, V domains shown)
VH: B26 VH
VL: B26 VL with V110I, L111K
B41: H3 designed Vlambda-Ckappa chimeric Fab, design 21 (E83F_D85V_T105E_V106I) (Fab, name in Kabat numbering, V domains shown)
VH: B26 VH
VL: B26 VL with T87V, V110I
B42: H3 designed Vlambda-Ckappa chimeric Fab, design 28 (E83V_D85V_T105E) (Fab, name in Kabat numbering, V domains shown)
VH: B26 VH
VL: B26 VL with F85V, T87V
B43: H3 designed Vlambda-Ckappa chimeric Fab, design 19 (E83F_D85V_T105E) (Fab, name in Kabat numbering, V domains shown)
VH: B26 VH
VL: B26 VL with T87V
B44: H3 designed Vlambda-Ckappa chimeric Fab, design 25 (E83V_V106I) (Fab, name in Kabat numbering, V domains shown)
VH: B26 VH
VL: B26 VL with F85V, T87D, E109T, V110I
B45: H3 designed Vlambda-Ckappa chimeric Fab, design 37 (E83A_D85T) (Fab, name in Kabat numbering, V domains shown)
VH: B26 VH
VL: B26 VL with F85A, E109T
B46: H3 designed Vlambda-Ckappa chimeric Fab, design 26 (E83V_D85T) (Fab, name in Kabat numbering, V domains shown)
VH: B26 VH
VL: B26 VL with F85V, E109T
B47: H3 designed Vlambda-Ckappa chimeric Fab, design 27 (E83V_D85T_T105E) (Fab, name in Kabat numbering, V domains shown)
VH: B26 VH
VL: B26 VL with F85V
B48: H3 designed Vlambda-Ckappa chimeric Fab, design 31 (E83I_T105E) (Fab, name in Kabat numbering, V domains shown)
VH: B26 VH
VL: B26 VL with F85I, T87D
B49: H3 designed Vlambda-Ckappa chimeric Fab, design 17 (E83F_D85T) (Fab, name in Kabat numbering, V domains shown)
VH: B26 VH
VL: B26 VL with E109T
B50: H3 designed Vlambda-Ckappa chimeric Fab, design 20 (E83F_D85T_T105E_V106I) (Fab, name in Kabat numbering, V domains shown)
VH: B26 VH
VL: B26 VL with V110I
B51: H3 designed Vlambda-Ckappa chimeric Fab, design 39 (E83A_D85T_T105E_V106I) (Fab, name in Kabat numbering, V domains shown)
VH: B26 VH
VL: B26 VL with F85A, V110I
B52: H3 designed Vlambda-Ckappa chimeric Fab, design 32 (E83I_D85T) (Fab, name in Kabat numbering, V domains shown)
VH: B26 VH
VL: B26 VL with F85I, E109T
B53: H3 designed Vlambda-Ckappa chimeric Fab, design 36 (E83A_T105E) (Fab, name in Kabat numbering, V domains shown)
VH: B26 VH
VL: B26 VL with F85A, T87D

Target: T1, recombinant human IL-17A (human, UniProt Q16552 20-155, limits assumed)
T1 construct: Bought reagent
T1 sequence (Q16552 20-155 limits assumed): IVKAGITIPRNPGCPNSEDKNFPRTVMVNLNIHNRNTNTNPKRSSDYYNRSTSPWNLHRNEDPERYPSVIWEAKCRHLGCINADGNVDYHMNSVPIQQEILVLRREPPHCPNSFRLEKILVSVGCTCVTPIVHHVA
Assay: SPR (ProteOn), IL-17A immobilized, Fab analyte;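 note: IL-17A amine-coupled on a GLC sensor chip at roughly 75–200 RU, double-referenced sensorgrams fitted with a Langmuir binding model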
Experimental: IL-17 affinity determination was carried out as follows. The IL-17A surface was generated using a GLC sensorchip activated by a 1:10 dilution of the standard BioRad sNHS/EDC solutions injected for 140s at 100 pt/min in the ligand (vertical) direction. Immediately after the activation, 1 to 4 microg/mL solution of IL-17A in 10 mM NaOAc pH 4.5 was injected in the ligand (vertical) direction at a flow rate of 25 or 100 microL/min until approximately 75-200 resonance units (RUs) were immobilized. Remaining active groups were quenched by a 140s injection of 1M ethanolamine at 100 μL/min also in the ligand direction. […] Firstly, two buffer injections for 30s at 100 microL/min in the analyte (horizontal) direction were used to stabilize the baseline. […] Sensorgrams were aligned and double-referenced using the buffer blank injection and interspots, and the resulting sensorgrams were analyzed using ProteOn Manager software v3.1. The double-referenced sensorgrams were fit to the Langmuir binding model.

Kd [nM] | Binder
0.3 | B1
0.3 | B2
0.3 | B3
0.3 | B4
0.2 | B5
0.3 | B6
0.3 | B7
0.4 | B8
0.3 | B9
0.2 | B10
0.3 | B11
0.3 | B12
0.2 | B13
0.2 | B14
0.3 | B15
0.2 | B16
0.3 | B17
0.3 | B18
0.2 | B19
0.2 | B20
0.2 | B21
0.3 | B22
0.3 | B23
0.3 | B24
0.3 | B25

Target: T2, recombinant human HER3 (human, UniProt P21860 20-643)
T2 construct: Bought reagent
Assay: SPR (Biacore T200), HER3 captured via anti-His, Fab analyte;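 note: single cycle kinetics with five Fab concentrations, referenced against a blank flow cell and mock-buffer injections, sensorgrams fit to a 1:1 binding model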
Experimental: HER3 affinity determination in Fabs was carried out as follows. The screening of Fabs (preparative SEC purified) for binding to HER3 antigen occurred in two steps: an indirect capture of HER3 onto the anti-His antibody, followed by the injection of five concentrations of Fabs, for kinetic analysis using single cycle kinetics. […] HER3 was injected at 4-8 μg/mL over the active flow cell for 60 s at a flow rate of 10 μL/min. […] HER3 was not captured on the reference (blank) flow cell. […] The captured HER3 surfaces were regenerated by 10 mM glycine pH 1.5 for 120 s at 30 μL/min to prepare the surfaces for the next injection cycle. At least two mock-buffer injections were performed for each analyte injection and used for referencing. The resulting single cycle kinetics sensorgrams were analyzed using Biacore T200 BiaEvaluation software version 3.0 and fit to the 1:1 binding model.

Kd [nM] | Binder
90.5 | B26
92.4 | B27
92.6 | B28
95.7 | B29
92.7 | B30
102 | B31
90.8 | B32
89 | B33
88.5 | B34
95.1 | B35
72.2 | B36
75.4 | B37
77 | B38
59.1 | B39
80.5 | B40
82.6 | B41
89.2 | B42
83 | B43
80.6 | B44
83.5 | B45
82.1 | B46
84.1 | B47
82.7 | B48
83.1 | B49
85.8 | B50
89.6 | B51
83.8 | B52
66.4 | B53
